Data reported in patent publication US20230270815A1 (RAJIV GANDHI CENTRE FOR BIOTECHNOLOGY, published 2023).
No end group written: not given here.

Tests used:
[1] = biological target: T1, DLL1 (UniProt O00548 18-723, limits assumed); assay: co-immunofluorescence on HSC-4 cells
T1 construct: whole, on cells
T1 sequence (looked up): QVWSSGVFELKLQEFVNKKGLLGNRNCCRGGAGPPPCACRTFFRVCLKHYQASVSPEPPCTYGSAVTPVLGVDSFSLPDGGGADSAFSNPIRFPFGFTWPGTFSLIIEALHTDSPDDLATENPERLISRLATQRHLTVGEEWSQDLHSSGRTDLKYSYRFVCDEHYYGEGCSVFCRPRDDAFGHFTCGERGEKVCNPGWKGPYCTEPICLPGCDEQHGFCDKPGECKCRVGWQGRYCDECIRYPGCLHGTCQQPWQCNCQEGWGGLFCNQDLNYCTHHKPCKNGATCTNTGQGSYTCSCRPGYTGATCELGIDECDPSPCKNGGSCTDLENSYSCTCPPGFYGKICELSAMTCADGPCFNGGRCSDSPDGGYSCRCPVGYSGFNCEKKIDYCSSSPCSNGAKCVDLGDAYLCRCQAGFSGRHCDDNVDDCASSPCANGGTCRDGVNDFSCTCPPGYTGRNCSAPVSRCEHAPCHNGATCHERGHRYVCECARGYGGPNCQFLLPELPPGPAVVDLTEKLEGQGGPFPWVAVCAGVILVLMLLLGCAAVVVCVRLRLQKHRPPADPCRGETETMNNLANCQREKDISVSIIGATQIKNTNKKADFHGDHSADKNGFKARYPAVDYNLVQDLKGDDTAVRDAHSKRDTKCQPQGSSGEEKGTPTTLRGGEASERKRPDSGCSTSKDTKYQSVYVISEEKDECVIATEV

[2] = biological target: T2, DSG3 (UniProt P32926 50-999, limits assumed); assay: co-immunofluorescence on HSC-4 cells
T2 construct: whole, on cells
T2 sequence (looked up): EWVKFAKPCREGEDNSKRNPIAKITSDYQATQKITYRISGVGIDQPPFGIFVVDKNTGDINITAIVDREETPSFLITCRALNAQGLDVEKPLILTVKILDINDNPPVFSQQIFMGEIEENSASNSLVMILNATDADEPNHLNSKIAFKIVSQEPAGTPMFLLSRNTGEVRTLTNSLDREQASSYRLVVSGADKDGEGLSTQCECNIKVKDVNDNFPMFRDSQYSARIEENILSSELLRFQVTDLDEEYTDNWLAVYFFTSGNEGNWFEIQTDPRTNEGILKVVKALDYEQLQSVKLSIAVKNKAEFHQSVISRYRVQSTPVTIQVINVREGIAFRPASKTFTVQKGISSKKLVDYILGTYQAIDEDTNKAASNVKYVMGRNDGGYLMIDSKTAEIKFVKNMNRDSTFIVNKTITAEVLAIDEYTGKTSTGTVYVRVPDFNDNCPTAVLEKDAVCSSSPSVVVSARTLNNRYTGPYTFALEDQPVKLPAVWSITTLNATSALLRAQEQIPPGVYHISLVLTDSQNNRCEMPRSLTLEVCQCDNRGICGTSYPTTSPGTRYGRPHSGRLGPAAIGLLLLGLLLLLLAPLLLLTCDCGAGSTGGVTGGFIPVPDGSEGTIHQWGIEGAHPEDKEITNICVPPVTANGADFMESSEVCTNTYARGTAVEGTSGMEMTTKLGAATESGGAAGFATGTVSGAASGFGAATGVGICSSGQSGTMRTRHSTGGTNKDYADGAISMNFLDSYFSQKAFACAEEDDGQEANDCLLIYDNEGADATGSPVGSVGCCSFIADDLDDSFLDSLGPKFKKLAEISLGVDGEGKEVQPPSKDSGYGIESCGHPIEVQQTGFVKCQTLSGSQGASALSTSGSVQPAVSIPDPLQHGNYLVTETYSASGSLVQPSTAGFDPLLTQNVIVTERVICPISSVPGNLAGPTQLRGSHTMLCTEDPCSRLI

[3] = biological target: T3, GRPR (UniProt P30550 1-384, limits assumed); assay: co-immunofluorescence on HSC-4 cells
T3 construct: whole, on cells

[4] = biological target: T4, IL6Rα (Interleukin 6 Receptor α) (UniProt P08887 20-468, limits assumed); assay: cell-based or functional assay
T4 sequence (looked up): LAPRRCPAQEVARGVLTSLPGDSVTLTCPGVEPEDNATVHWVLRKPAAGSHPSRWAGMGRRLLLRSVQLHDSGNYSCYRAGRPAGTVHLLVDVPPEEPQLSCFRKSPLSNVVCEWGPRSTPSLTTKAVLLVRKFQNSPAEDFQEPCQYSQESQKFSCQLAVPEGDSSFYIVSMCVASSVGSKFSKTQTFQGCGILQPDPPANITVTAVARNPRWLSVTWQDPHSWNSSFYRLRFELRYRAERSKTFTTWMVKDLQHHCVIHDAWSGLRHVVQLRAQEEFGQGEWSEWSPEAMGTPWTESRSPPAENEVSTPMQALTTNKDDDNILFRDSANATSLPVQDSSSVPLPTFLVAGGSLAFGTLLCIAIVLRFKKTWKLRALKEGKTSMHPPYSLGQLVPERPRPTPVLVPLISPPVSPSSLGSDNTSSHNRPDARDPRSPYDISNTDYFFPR

T3 sequence (P30550 whole entry): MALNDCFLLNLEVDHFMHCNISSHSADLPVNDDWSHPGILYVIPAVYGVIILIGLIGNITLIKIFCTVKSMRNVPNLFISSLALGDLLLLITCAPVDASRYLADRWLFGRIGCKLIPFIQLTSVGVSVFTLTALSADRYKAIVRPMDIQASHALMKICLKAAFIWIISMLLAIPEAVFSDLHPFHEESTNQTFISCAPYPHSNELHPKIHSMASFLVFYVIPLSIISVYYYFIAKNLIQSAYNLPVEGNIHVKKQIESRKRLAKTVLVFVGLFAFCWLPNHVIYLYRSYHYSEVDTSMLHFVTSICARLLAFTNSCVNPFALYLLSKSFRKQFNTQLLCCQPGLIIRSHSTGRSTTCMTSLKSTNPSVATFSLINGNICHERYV

binding result [1]: no binding
binding result [2]: no binding
binding result [3]: no binding
growth inhibition of HSC-4 cells, MTT assay, IC50 [4]: 10.2 µM
growth inhibition of MDA-MB-231 cells, MTT assay, IC50 [4]: 4.5 µM
B1: SSTP1 (Temporin1Dau1) (peptide)
peptide: FLPLLISALTSLFPKLGK
modifications: not fully specified
notes: Chemically synthesized mature peptide of 18 residues from frog skin secretion; No C-terminal amide is printed for SSTP1; also called SSTP1-biotin; SSTP1-Alexa Fluor-488
